In US6797467B1, “Compositions and methods for determining interactions of mitochondrial components, and for identifying agents that alter such interactions” (MitoKor, Inc., priority 1999, dated 2004):

Experiments:
[1] = target: T1, CypD rotamase activity (Homo sapiens, UniProt P30405); test: Rotamase (peptidylprolyl cis-trans isomerase) solvent jump assay; format: biochemical; conditions: relative to reactions without added enzyme; FIG. 12, 13
T1 construct: made in house; host or cells: E. coli (pMK12-GST-huCypD)
T1 sequence (P30405 30-207): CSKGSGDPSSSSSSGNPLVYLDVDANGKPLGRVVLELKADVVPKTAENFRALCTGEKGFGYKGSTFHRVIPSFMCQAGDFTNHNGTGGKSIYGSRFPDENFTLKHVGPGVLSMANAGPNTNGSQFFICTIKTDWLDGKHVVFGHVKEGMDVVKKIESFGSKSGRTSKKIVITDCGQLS
Description: Cyclophilin binding to ANT present in the SMP was determined using soluble recombinant GST-cyclophilin D (see Example 10, above). Rotamase (peptidylprolyl cis-trans isomerase) activity of the GST-CypD preparation was determined according to the “solvent jump” method of Kofron et al. (1991 Biochemistry 30: 6127-6134). Briefly, Ala-Ala-cis/trans-Pro-Phe-pNa was used as the rotamase substrate, coupled with α-chymotrypsin cleavage of all trans-Pro containing peptide to yield p-nitroanilide, detected by absorbance at 390 nm.

[2] = target: T2, ANT/BR PLS (human ANT3 and bacteriorhodopsin) (Homo sapiens, UniProt P30405); test: GST-CypD binding to proteoliposomes reconstituted with huANT3 and bacteriorhodopsin (ANT/BR PLS); conditions: FIG. 14
T2 construct: GST-huCypD: E. coli; Bacteriorhodopsin: purchased
T2 sequence (P30405 30-207): as above
Description: Preformed liposomes were prepared by a freeze/thaw/sonication procedure. Briefly, egg-yolk lecithin (240 mg) was suspended in 3 ml of reconstitution buffer (50 mM NaCl, 10 mM HEPES, pH 7.4). The suspension was pulsed with argon stream to remove oxygen, partially frozen by contacting the vessel with a dry ice/ethanol bath, and sonicated as described above for SMP except the sonication period was for 1 min. The freeze/sonication step was repeated at least 3-4 times until clarification of lipid suspension was achieved.
Small EconoColumns™ (BioRad, Hercules, Calif.) were filled with 1.7 gm of SM-2 BioBeads™ (BioRad), washed with methanol followed by water, and equilibrated with the reconstitution buffer. […] Control (protein-free) liposomes were prepared in parallel by adding 0.5 ml of the elution buffer (50 mM NaCl, 1 mM EDTA, 10 mM Hepes, 1.3% Triton X-100™) to 200 μl of the liposome suspension. Each mixture was vortexed, applied to the BioBeads™ SM-2 column and passed through the column 5-6 times. Formation of proteoliposomes was visualized by apparent turbidity of the solution. Non-entrapped MUP or ATP was removed either during pelleting of the proteoliposomes by centrifugation, or by filtration of the proteoliposome suspension on a column of Sephadex™ G-50 (Pharmacia, Piscataway, N.J.).
Bacteriorhodopsin (BR) was co-reconstituted into the ANT liposomes as follows. […]

[3] = target: T3, His-tagged huANT3 : CypD-GST interaction (Homo sapiens, UniProt P30405); test: Nickel bead immunoassay of huANT3:huCypD interaction (Western, anti-GST); format: binding
T3 construct: made in house; host or cells: His-huANT3: Trichoplusia ni cells infected with baculovirus (pMK4B-huANT3); GST-huCypD: E. coli (pMK12-GST-huCypD)
T3 sequence (P30405 30-207): as above
Description: Each portion was suspended in 1 ml of MSB with protease inhibitors (leupeptin, final concentration 10 ug/ml; pepstatin, final concentration 10 ug/ml; aprotinin, final concentration, 2 ug/ml; phenylmethylsulfonyl fluoride {PMSF}, final concentration, 100 μM; all from Sigma Chemical Co., St Louis, Mo.). The resuspended cell suspensions were frozen and thawed twice, then homogenized using a rotating teflon-coated probe and a close-fitting glass container (10 passes). The cellular homogenate was centrifuged (3,700 rpm, approximately 1,500×g) at 4° C. for 5 minutes; this supernatant from the first spin was saved. The pellet was washed with about 500 μl of MSB with protease inhibitors, centrifuged (3,800 rpm, approximately 1,600×g) at 4° C. for 5 minutes, and supernatant from this spin was combined with the supernatant from the first spin. The combined supernatant was centrifuged (14,000 rpm, approximately 20,800×g) at 4° C. for 15 minutes, and the pellet was resuspended in 300 μl of a 1:1 solution of (a) 20 mM MOPS and (b) MSB, wherein both (a) and (b) contain the previously described protease inhibitors. The resultant suspension was frozen and thawed three times.
One hundred (100) μl of T. ni mitochondria (9.83 μg/ml) was thawed slowly on ice and then centrifuged at 4° C. for 15 minutes to pellet mitochondria. […]
The extracts were evaluated by Western analysis. […]

[4] = target: T4, ANT present in the SMP (recombinant human ANT3) (Homo sapiens, UniProt P30405); test: GST-CypD binding to submitochondrial particles (SMP) from T. ni cells expressing His-tagged huANT3; conditions: 2.6 μM GST-CypD, 1 mg SMP; 0 hr, 3 hr, 6 hr; FIG. 11
T4 construct: made in house; host or cells: His-huANT3: submitochondrial particles of baculovirus-infected Trichoplusia ni cells; GST-huCypD: E. coli
T4 sequence (P30405 30-207): as above
Description: SMP preparation was according to a modification of Halestrap et al. (1998 Biochim. Biophys. Acta 1366:79-94), and all steps were performed at 4° C. Starting material was one liter of cell culture, corresponding to 1×10^9 T. ni cells. Cells were pelleted by centrifugation and stored frozen at −20° C. For isolation of mitochondria, the cell pellet was thawed and resuspended in 15 ml of mitochondrial isolation buffer (MIB, all reagents from Sigma, St. Louis, Mo., unless otherwise noted): 0.22 M mannitol, 70 mM sucrose, 10 mM Hepes, 0.2 mM EDTA, 0.2 mM 2-mercaptoethanol (2-ME), pH 7.2 plus a standard protease inhibitor cocktail (Roche Molecular Biochemicals, Indianapolis, Ind.). The suspension was subjected to two freeze-thaw cycles by shell-freezing the container in a dry ice/ETOH bath and then thawing the suspension at room temperature, and was then diluted with 20 ml of MIB. The suspension was next homogenized with 10 strokes in a Potter-Elvehjem homogenizer (rheostat setting 28). The resulting homogenate was further diluted with MIB to a volume of approximately 200 ml and centrifuged at 600×g at 4° C. for 10 min. […] Protein concentration was measured using the Pierce BCA (Pierce Chemical Co., Rockford, Ill.) according to the manufacturer's instructions. […]

Row | Substance | rotamase activity [1] | binding of GST-CypD to ANT/BR PLS [2] | amount of CypD-GST retained on beads ([3]; His-tagged huANT3 present (lanes 2', 3') versus absent (lane 1')) | binding of CypD-GST to His-tagged ANT3 on a solid support ([3]; summary statement) | GST-CypD in SMP pellet fractions [4]
1 | His-CypD: recombinant polyHis-tagged human CypD fusion protein, purified on nickel columns or by FPLC | rotamase activity was also demonstrated | – | – | – | –
2 | Ek-CypD: CypD liberated from the polyHis fusion tag following enterokinase cleavage | rotamase activity was also demonstrated | – | – | – | –
3 | GST-CypD: recombinant glutathione S-transferase-human cyclophilin D fusion protein expressed from pMK12-GST-huCypD | readily apparent rotamase activity | readily apparent | visibly increased by roughly an order of magnitude | specifically binds | readily detectable
